The values that follow are results of earlier work, collected in PMC10687467.

The target in one data set is LRP-2 (Homo sapiens) (UniProt P98164).
Data set [1] deals with VLDL receptor (Homo sapiens) (UniProt P98155).
For data set [2], the target named is LDL receptor (Homo sapiens) (UniProt P01130).
The target in the next data set is ApoER2 (Homo sapiens) (UniProt Q14114).

Chain of LRPAP1 (P30533 35-357): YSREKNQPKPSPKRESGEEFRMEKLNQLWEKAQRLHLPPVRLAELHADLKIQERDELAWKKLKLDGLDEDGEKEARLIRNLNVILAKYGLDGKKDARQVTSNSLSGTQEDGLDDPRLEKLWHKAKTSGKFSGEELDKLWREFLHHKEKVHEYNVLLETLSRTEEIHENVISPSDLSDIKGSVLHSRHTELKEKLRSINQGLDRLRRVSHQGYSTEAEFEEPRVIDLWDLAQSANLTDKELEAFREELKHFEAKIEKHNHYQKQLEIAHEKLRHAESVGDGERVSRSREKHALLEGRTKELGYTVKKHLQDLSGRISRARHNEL
Chain of LRP-2 (Homo sapiens) (P98164 26-4423): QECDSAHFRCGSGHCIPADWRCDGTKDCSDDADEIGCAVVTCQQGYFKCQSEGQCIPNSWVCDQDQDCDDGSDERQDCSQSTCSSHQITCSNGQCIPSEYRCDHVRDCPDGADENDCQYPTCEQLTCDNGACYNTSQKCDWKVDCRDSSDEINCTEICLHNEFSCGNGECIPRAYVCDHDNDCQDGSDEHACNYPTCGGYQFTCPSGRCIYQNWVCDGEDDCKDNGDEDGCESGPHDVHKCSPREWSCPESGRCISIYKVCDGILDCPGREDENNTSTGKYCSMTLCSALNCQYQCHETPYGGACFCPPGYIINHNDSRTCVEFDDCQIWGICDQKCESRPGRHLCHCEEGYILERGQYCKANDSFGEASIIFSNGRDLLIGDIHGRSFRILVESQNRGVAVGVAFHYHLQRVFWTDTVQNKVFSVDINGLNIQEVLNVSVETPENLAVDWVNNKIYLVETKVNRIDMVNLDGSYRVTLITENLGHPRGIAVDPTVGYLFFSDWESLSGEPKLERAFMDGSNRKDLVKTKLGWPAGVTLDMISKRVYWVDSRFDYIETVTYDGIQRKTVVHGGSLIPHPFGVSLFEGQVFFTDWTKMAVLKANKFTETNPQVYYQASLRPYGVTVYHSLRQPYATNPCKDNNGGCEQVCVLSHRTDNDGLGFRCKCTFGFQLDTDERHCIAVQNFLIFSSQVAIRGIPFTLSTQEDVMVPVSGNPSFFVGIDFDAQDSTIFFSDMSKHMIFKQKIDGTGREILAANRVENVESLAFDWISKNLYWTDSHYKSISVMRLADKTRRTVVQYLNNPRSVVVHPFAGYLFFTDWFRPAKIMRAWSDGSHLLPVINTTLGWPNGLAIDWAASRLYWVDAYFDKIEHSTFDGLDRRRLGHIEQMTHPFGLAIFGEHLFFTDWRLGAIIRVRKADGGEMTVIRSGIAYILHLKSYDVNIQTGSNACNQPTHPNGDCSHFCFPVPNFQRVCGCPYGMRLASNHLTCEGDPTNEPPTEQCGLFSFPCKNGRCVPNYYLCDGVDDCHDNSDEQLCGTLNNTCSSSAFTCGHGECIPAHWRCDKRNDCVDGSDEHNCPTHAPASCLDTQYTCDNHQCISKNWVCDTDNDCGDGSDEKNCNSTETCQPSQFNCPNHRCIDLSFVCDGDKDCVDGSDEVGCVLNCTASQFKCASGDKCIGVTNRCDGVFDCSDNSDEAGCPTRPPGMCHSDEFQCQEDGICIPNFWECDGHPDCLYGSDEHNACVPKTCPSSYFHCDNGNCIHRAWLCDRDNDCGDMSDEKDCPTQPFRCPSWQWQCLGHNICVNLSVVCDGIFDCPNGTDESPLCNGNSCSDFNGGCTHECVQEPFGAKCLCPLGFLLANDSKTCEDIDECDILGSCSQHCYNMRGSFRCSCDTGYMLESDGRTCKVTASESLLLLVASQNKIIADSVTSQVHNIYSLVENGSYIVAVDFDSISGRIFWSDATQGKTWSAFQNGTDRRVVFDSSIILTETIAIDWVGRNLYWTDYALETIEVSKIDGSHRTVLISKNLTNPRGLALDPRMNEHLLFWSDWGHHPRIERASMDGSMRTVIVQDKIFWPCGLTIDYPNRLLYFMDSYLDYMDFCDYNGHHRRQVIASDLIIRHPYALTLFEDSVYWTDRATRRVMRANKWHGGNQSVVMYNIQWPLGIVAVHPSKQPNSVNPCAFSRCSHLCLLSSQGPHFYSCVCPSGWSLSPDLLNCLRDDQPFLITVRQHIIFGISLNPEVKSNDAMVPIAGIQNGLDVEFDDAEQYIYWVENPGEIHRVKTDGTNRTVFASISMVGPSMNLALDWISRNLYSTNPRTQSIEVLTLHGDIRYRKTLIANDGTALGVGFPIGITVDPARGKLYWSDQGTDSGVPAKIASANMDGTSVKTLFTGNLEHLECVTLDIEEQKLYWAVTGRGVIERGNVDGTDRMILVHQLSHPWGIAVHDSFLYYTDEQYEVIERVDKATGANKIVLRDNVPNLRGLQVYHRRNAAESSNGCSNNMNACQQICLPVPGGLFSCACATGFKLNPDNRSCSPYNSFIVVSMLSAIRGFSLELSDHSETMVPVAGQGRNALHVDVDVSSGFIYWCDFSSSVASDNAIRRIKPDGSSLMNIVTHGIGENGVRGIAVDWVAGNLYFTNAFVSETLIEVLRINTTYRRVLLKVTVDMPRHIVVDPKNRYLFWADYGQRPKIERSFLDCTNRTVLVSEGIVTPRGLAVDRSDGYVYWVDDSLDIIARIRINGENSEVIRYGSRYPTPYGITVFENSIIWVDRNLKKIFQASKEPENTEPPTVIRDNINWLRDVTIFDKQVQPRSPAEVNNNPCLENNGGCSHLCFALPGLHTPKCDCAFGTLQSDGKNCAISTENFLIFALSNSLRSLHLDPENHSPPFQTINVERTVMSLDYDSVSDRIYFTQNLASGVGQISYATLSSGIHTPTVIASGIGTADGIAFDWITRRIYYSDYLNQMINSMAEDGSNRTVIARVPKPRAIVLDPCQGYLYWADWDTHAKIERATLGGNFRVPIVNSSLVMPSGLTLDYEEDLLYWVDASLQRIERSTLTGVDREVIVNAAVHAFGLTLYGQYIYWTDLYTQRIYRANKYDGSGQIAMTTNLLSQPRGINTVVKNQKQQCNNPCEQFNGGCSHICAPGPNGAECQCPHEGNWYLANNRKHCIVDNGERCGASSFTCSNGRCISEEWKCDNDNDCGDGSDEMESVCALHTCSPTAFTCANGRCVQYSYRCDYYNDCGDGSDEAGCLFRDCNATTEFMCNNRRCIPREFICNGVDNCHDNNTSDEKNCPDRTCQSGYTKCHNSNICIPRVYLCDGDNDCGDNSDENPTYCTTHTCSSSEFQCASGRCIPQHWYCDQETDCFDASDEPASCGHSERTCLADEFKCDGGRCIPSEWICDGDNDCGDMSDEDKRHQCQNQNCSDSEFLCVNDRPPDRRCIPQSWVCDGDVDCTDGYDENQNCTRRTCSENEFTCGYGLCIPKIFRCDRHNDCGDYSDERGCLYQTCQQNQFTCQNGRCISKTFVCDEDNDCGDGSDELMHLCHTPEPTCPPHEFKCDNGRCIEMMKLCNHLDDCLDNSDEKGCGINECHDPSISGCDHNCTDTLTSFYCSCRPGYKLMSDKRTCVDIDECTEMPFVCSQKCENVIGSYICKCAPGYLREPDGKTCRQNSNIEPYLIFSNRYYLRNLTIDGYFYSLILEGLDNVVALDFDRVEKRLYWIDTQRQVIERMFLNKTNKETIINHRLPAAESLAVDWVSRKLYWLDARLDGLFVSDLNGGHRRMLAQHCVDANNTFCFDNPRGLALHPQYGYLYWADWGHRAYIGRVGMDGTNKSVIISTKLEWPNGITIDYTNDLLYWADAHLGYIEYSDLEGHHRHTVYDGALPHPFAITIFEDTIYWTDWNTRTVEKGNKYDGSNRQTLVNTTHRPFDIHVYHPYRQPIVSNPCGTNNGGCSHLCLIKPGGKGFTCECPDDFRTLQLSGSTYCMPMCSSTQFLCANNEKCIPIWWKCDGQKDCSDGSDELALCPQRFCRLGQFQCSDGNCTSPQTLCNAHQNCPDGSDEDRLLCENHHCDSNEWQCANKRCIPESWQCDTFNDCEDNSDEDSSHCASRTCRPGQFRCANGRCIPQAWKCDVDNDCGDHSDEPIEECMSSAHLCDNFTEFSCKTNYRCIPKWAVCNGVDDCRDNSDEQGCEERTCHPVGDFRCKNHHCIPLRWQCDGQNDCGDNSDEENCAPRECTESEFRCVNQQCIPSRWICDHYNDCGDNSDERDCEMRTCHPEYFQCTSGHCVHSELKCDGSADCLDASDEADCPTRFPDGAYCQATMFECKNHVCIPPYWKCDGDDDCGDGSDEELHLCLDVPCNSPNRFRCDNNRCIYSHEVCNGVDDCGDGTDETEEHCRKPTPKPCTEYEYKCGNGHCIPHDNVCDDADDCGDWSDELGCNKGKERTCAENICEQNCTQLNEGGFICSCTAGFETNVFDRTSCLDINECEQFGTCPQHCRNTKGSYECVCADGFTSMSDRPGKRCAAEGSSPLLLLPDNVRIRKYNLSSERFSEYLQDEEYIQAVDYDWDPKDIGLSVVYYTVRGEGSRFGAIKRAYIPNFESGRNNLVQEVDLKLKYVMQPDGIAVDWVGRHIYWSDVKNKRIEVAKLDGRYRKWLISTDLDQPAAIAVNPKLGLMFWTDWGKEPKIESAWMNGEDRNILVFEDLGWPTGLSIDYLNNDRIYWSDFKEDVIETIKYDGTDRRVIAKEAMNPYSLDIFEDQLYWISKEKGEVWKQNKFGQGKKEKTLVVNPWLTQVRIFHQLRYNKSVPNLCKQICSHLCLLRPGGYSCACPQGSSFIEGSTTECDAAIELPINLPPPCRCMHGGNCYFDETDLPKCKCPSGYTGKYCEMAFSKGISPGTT

The term Kd denotes the free concentration of one partner at which half of the binding sites on the other are occupied at equilibrium, for simple one-to-one binding. With LRPAP1 (from UniProt P30533), the Kd with LRP-2 (Homo sapiens) was 8 nM; in data set [1], 0.7 nM; in data set [2], 250 nM; with ApoER2 (Homo sapiens), 5 nM.
